Results from publication PMC10671532, “Expanded Substrate Specificity in D-Amino Acid Transaminases: A Case Study of Transaminase from Blastococcus saxobsidens” (International Journal of Molecular Sciences, 2023).

What was measured:
[1] = biological target: T1, BlasaTA (transaminase from Blastococcus saxobsidens) (Blastococcus saxobsidens, UniProt H6RQF3); test: half-reaction with PLP form, absorbance at […] nm, kobs fit; type: biochemical; settings: pH 8.0, 50 mM K-phosphate, 30 °C, single half-reaction, read-out: 50 mM K-Phosphate Buffer, pH 8.0 / KD
T1 construct: gene BLASA_4517; codon-optimized gene in modified pET-21d; N-terminal His6 tag with TEV site kept for kinetics, cut for crystals; E. coli Rosetta (DE3) pLysS; homodimer ~60 kDa

[2] = biological target: Recombinant D-amino acid transaminase from Blastococcus saxobsidens (BlasaTA), (His)6-tagged (Blastococcus saxobsidens (strain DD2)); test: SEC; gel filtration of the purified enzyme; molecular weight approximately 60 kDa against 29.1 kDa for the subunit; conditions not shown
purified protein [3] = substrate: C[C@@H](N)C(=O)O; test: purified protein; settings: co-substrate 5 mM α-ketoglutarate, pH 8.0, 50 mM K-phosphate, 40 °C
purified protein [4] = substrate: N[C@H](CCC(=O)O)C(=O)O; test: purified protein; type: biochemical, Blastococcus saxobsidens; settings: co-substrate 15 mM pyruvate, pH 8.0, 50 mM K-phosphate, 40 °C
purified protein [5] = substrate: CC(C)CC(=O)C(=O)O; test: purified protein; type: biochemical, Blastococcus saxobsidens; settings: co-substrate 25 mM D-alanine, pH 8.0, 50 mM K-phosphate, 40 °C
purified protein [6] = substrate: C[C@@H](N)c1ccccc1; test: purified protein; type: biochemical, Blastococcus saxobsidens; settings: co-substrate 2 mM α-ketoglutarate, pH 9.0, 50 mM CHES, 30 °C
purified protein [7] = substrate: CC(=O)C(=O)O; test: purified protein; type: biochemical, Blastococcus saxobsidens; settings: co-substrate 15 mM D-glutamate, pH 8.0, 50 mM K-phosphate, 40 °C
purified protein [8] = substrate: O=C(O)CCC(=O)C(=O)O; test: purified protein; type: biochemical, Blastococcus saxobsidens; settings: co-substrate 25 mM D-alanine, pH 8.0, 50 mM K-phosphate, 40 °C

## N[C@H](Cc1ccccc1)C(=O)O [D-Phenylalanine]
[1]
  Kd: 32 ± 2 mM

## Recombinant D-amino acid transaminase from Blastococcus saxobsidens (BlasaTA), (His)6-tagged (enzyme)
[2]
  stoichiometry N: 2

## C[C@@H](N)c1ccccc1 [(R)-1-Phenylethyl amine]
[1]
  Kd: 19 ± 2 mM

B1: BlasaTA (transaminase from Blastococcus saxobsidens) (Blastococcus saxobsidens DD2) (protein)
chain: MNEQRSVAVWRDGAAVTVPAHQPVVTAFDLGLGRGDGIFESVAVVAGRTPHLAAHLTRLTRSAALLGLPAPGDQAWMEMVAAVLADWPAALEGVCRLFLTRGLGDGTPPTALALLAPVPADTLRQRAEGISVATLGLGVPADFRAGAPWLLGGAKTLSYAVNMAAQRHAHDLGADDVVFTSLEGRLLEGPTSTVVWAAGGTLHTPPVETGILPGTTQARLFTAAAADGWPTSVTPGTVDDLHAADAVWLLSGVRGAAVVHTVDGVRRGDGDLSRRVRELLAR
notes: codon-optimized gene in modified pET-21d; N-terminal His6 tag with TEV site kept for kinetics, cut for crystals; E. coli Rosetta (DE3) pLysS; homodimer ~60 kDa
Purified protein [3]
  Km: 2000 ± 300 µM
  kcat: 8.1 s⁻¹
  kcat/Km: 4000 M⁻¹ s⁻¹
Purified protein [4]
  Km: 400 ± 60 µM
  kcat: 7.5 ± 0.3 s⁻¹
  kcat/Km: 18800 ± 3600 M⁻¹ s⁻¹
Purified protein [5]
  Km: 45000 ± 2000 µM
  kcat: 0.19 ± 0.004 s⁻¹
  kcat/Km: 4.2 ± 0.3 M⁻¹ s⁻¹
Purified protein [6]
  Km: 6600 ± 400 µM
  kcat: 0.053 ± 0.002 s⁻¹
  kcat/Km: 8 ± 0.8 M⁻¹ s⁻¹
Purified protein [7]
  Km: 1600 ± 100 µM
  kcat: 7.5 ± 0.3 s⁻¹
  kcat/Km: 4700 ± 500 M⁻¹ s⁻¹
Purified protein [8]
  Km: 530 ± 60 µM
  kcat: 8.1 ± 0.3 s⁻¹
  kcat/Km: 15300 ± 2300 M⁻¹ s⁻¹
